Experimental data: US6187552A, “Method for identifying inhibitors of JAK2/cytokine receptor binding” (Pharmacia & Upjohn Company, priority 1998, dated 2001)

Molecular target: JAK2 (Homo sapiens, UniProt O60674)
Test: SPA competition: soluble peptide/streptavidin against peptide 4-coated SPA beads for binding 3H-JAK2
Parameters: Y918N clone error corrected to Tyr
From the text: FIGS. 20 A and B illustrate a test of the ability of streptavidin-peptide 4 complexes to compete for binding of 3H-JAK2 to peptide 4-coated SPA beads. For A, #0 is a beads only control. In all reactions with peptide bound to beads, excess peptide 4 [SEQ ID NO:14] was bound to beads before adding soluble samples. The reaction in #1 is peptide 4 [SEQ ID NO:14] bound to beads only, no added peptide 4 [SEQ ID NO:14] or streptavidin. #2 contained soluble peptide 4/streptavidin at a ratio of 1:1. #3 contained soluble peptide 4/streptavidin at a ratio of 4:1. #4 contained 20 μM peptide 4 added as soluble peptide 4. #5 contained 20 μM streptavidin. […] For B, 0 is a beads only control. In all reactions with peptide bound to beads, excess peptide 4 was bound to beads in the presence of 1 mg/ml κ-casein (as described in Materials and Methods of Example 8) before adding soluble samples. The reaction in #1 is peptide 4 bound to beads only, no added peptide 4 or streptavidin. #2 contained peptide 1/streptavidin at a ratio of 4:1 and #3 contained peptide 4/streptavidin at a ratio of 4:1.
The assay was set up in 96-well plates (Wallac, catalog # 1450-401), Turku, Finland, using a total assay volume of 200, μl/well. Triplicate reactions were done for each data point. The buffer used in all the assays was 35 mM sodium phosphate, 150 mM NaCl, pH 8.0, 10% glycerol. Biotinylated peptides were allowed to bind to streptavidin-coated SPA beads (Amersham Life Sciences, Arlington Heights, Ill., catalog # RPNQ0006) with either less than saturating peptide or excess peptide. For 400 μg SPA beads used per reaction, there was the capacity to bind 49 pmole of biotin (given the binding capacity of 121 pmole biotin/mg bead). Under less than saturating conditions, beads and 40 pmole peptide were added to the assay plate well and incubated for one hour with gentle shaking on a Titer plate shaker (Lab-Line Instruments, Inc., Melrose Park, Ill.) at 600 rpm and not washed. Under conditions of excess peptide, beads and peptide (80 pmole of peptide per 400 μg of bead) were mixed in batch with or without 1 mg/ml K-casein added as described in Results and Discussion, incubated for one hour with rotation, washed three times with buffer and aliquotted into wells. ^3 H-JAK2 or ^3 H-NJAK2 and any other components to be tested were added and the reactions were mixed and incubated for one hour in the dark at room temperature. The plates were then read on a MicroBeta (Wallac) set to read scintillation due to tritium.
The ability of excess peptide 4 [SEQ ID NO: 14] to compete for binding of JAK2 was tested. Biotinylated peptide 4 was bound to streptavidin in solution to mimic the conditions of the peptide 4 bound to the beads. It was used at a ratio of 1:1 (peptide 4: streptavidin) and at a ratio of 4:1 to see whether having multiple peptides on one streptavidin molecule might do a better job of binding JAK2 and therefore of competing. […] This could be due to the free streptavidin pulling some of the peptide 4 [SEQ ID NO: 14] off the bead. […] Another SPA was done using peptide 4 [SEQ ID NO:14] or peptide 1 [SEQ ID NO:11] bound to streptavidin at a ratio of 4:1. […] The results are shown in panel B of FIG. 20.

Chain of JAK2 (O60674 3-1132): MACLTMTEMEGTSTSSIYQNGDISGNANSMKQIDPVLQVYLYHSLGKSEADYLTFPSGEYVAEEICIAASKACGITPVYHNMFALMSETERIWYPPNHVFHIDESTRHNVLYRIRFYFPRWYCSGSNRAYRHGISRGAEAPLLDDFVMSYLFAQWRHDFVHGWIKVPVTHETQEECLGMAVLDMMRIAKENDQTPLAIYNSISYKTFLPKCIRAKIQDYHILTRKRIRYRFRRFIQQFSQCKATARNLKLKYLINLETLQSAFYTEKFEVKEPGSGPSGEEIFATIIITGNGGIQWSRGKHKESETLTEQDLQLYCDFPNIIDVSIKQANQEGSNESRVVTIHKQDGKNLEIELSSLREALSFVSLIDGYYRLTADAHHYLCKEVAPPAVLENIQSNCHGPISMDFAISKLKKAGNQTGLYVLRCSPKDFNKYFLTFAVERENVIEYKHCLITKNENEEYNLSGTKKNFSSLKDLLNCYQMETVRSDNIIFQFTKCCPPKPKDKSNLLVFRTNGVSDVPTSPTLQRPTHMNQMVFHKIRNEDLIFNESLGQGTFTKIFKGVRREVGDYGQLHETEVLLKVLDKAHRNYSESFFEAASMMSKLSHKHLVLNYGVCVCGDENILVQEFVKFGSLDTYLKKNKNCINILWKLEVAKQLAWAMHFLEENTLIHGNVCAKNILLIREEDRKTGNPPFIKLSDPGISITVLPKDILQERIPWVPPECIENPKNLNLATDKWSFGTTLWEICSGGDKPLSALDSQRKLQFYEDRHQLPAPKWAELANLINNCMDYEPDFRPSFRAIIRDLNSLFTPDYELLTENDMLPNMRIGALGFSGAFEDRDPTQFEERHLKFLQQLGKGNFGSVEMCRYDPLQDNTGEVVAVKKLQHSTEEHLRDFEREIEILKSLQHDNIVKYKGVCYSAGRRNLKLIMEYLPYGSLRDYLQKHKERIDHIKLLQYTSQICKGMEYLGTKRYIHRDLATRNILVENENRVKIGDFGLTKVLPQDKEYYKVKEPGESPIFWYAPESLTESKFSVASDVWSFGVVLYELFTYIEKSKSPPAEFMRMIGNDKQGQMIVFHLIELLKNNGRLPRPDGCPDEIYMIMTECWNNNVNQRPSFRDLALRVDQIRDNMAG

- binding of JAK2 by peptide in solution (conclusion from FIG. 20): binds JAK2 very poorly
- competition by peptide in solution, bound to streptavidin or not (conclusion from FIG. 20A): competes poorly
Sequence: GIYGYRLRRKWEEKIPNPSKSHLFQNGSAELWP [peptide 4, βc peptide, N-terminal truncation]
- competition for binding of JAK2 (peptide/streptavidin 4:1, beads with 1 mg/ml κ-casein, FIG. 20B): does compete for binding JAK2 but very weakly
- competition for binding of JAK2 (soluble peptide 4/streptavidin 1:1 and 4:1, no κ-casein, FIG. 20A): only minimal, if any, competition was seen
